The text below walks through data of US20060280751A1.

Assay [1] concerns the target envelope glycoprotein gp120 of HIV-1 laboratory strain AD8 (HIV-1 AD8 strain). The experiment in a line: cell-based or functional assay.
For assay [2], the target named is envelope glycoprotein gp120 of HIV-1 laboratory strain IIIB (HIV-1 IIIB strain). The experiment in a line: cell-based or functional assay.
Assay [3] deals with envelope glycoprotein gp120 of HIV-1 laboratory strain MN (HIV-1 MN strain) (UniProt P05877). Briefly: cell-based or functional assay.
The target of assay [4] is envelope glycoprotein gp120 of HIV-1 laboratory strain SF2 (HIV-1 SF2 strain). Briefly: cell-based or functional assay.
The target of assay [5] is envelope glycoprotein gp120 of HIV-1 laboratory strain 89.6 (HIV-1 89.6 strain) (UniProt Q73372). Briefly: cell-based or functional assay.
For assay [6], the target named is V3/β-Gal from patients' HIV-1 clones with IGPGRAF in the middle portion of V3 region (HIV-1 from patients). Briefly: sandwich ELISA: V3/β-Gal (200 ng/ml) captured by anti-β-Gal antibody, 1 µg/ml KD-247. On the technique in general: An ELISA detects its analyte on a solid surface through an enzyme-linked reagent.
Assay [7] has as its target V3/β-Gal from patients' HIV-1 clones with IGPARAF in the middle portion of V3 region (HIV-1 from patients). The description is as above.
Assay [8] has as its target V3/β-Gal from patients' HIV-1 clones with IGPGRAL in the middle portion of V3 region (HIV-1 from patients). The assay is described as above.
For assay [9], the target named is V3/β-Gal from patients' HIV-1 clones with VGPGRAL in the middle portion of V3 region (HIV-1 from patients). The assay is described as above.
The target of assay [10] is V3/β-Gal from patients' HIV-1 clones with IGPGRTF in the middle portion of V3 region (HIV-1 from patients). The assay is described as above.
Assay [11] deals with V3/β-Gal from patients' HIV-1 clones with IGPGRSF in the middle portion of V3 region (HIV-1 from patients). Described as above.
Assay [12] concerns the target V3/β-Gal from patients' HIV-1 clones with IGPGRAI in the middle portion of V3 region (HIV-1 from patients). Described as above.

In the case of “KD-247, a humanized monoclonal antibody to PND region”, the Neutralizing activity IC50 (p24 antigen in PBMC culture) is 5 µg/mL in assay [1]; more than 50 µg/mL in assay [2]; 0.1 µg/mL in assay [3]; 1 µg/mL in [4]; 0.2 µg/mL in assay [5]. For the same substance, the Neutralizing activity IC90 (p24 antigen in PBMC culture) in [1] is 10 µg/mL; in assay [2], more than 50 µg/mL; in assay [3], 1 µg/mL; in assay [4], 5 µg/mL; in assay [5] it was 2.5 µg/mL. For the same substance, the relative binding (% of V3/β-Gal from MN strain) in assay [6], in assay [7], in [8], in [9], in assay [10] and in [11] was more than 100% each time. In addition, the relative binding (% of V3/β-Gal from MN strain) in [12] was more than 100%.
